Results as given in patent US20260265373A1 (INMAGENE PTE, published 2026).
Values belong to the binder of their own block, whether it stands above or below them.

What was measured:
[1] = biological target: T1, full-length cynomolgus ILT7 on cells (cynomolgus, UniProt P59901 24-499 (human entry)); assay: flow cytometry on CHOK1-cynomolgus ILT7 cells
T1 construct: also called CHOK1-cynomolgus ILT7 cells
Experimental: (§1) Methods: The binding affinities of chimeric anti-ILT7 antibodies identified from the screening, including cmAb12, to human ILT7 or cynomolgus ILT7 expressed on cell membrane were measured by flow cytometry. Vectors containing coding sequences for full-length cynomolgus ILT7 (SEQ ID NO: 6) and hFcεRiγ (SEQ ID NO: 7) were generated. […] Both cell lines were seeded, resuspended, and incubated with the chimeric antibodies at 4° C. for 1 hour. Cells were then washed with cold FACS buffer (PBS+2% FBS), resuspended, and incubated with secondary antibody at 4° C. for 1 hour. hIgG1 and Tab1 were used as controls.
(§2) Cells were washed with cold FACS buffer (PBS+2% FBS) by centrifuging, followed by addition of secondary antibodies, and incubation at 4° C. for 1 hour. An isotype control antibody and reference anti-ILT7 antibody Tab1 were used as negative and positive controls. The concentration-MFI curves of FACs were then determined.

[2] = biological target: T2, human ILT7-his protein (human, UniProt P59901 28-446); assay: SPR (Biacore 8K), antibody captured through Fc, human ILT7-his as analyte, 25 C
T2 construct: also called human ILT7 protein
T2 sequence (P59901 other isoform, or with tags, fused parts or gaps): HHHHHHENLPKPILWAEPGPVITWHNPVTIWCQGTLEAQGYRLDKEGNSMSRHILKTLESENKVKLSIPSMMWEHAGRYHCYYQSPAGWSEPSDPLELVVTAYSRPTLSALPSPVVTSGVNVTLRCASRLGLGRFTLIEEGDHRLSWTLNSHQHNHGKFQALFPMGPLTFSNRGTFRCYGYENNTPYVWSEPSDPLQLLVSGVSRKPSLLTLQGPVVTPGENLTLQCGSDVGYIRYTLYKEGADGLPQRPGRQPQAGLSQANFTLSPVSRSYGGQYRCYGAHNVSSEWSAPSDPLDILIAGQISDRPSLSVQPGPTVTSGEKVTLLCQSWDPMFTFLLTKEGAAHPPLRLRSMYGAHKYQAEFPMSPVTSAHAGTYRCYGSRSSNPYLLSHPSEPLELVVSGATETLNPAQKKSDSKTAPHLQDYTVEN
Text: (§3) Methods: The binding affinity of the humanized cmAb12 antibody, hu-cmAb12, was further measured by surface plasmon resonance (SPR) technology with Biacore 8K. As used herein, “hu-cmAb12” refers to a specific antibody clone variant of the Hu12-04 antibody of Examples 8 and 9. The hu-cmAb12 antibody includes a VL having the amino acid sequence of SEQ ID NO: 19, a VH having the amino acid sequence of SEQ ID NO: 26, and a CH having the amino acid sequence of SEQ ID NO: 55. hu-cmAb12 or Tab1 were immobilized on CM-5 chip. The assay was performed at 25° C. and the running buffer was 1×HEPES (10 mM HEPES, 150 mM NaCl, 3 mM EDTA) with 0.005% Tween-20, pH 7.4. Diluted antibodies were captured on the sensor chip through Fc capture method. Human ILT7-his was used as the analyte, and running buffer was used as the dissociation phase. Similarly, ELISA was conducted as described above. An isotype control antibody and reference anti-ILT7 antibody Tab1 were used as controls.

[3] = biological target: T3, full-length human ILT7 on cells (human, UniProt P59901 24-499); assay: cell-based or functional assay
T3 sequence (P59901 other isoform, or with tags, fused parts or gaps): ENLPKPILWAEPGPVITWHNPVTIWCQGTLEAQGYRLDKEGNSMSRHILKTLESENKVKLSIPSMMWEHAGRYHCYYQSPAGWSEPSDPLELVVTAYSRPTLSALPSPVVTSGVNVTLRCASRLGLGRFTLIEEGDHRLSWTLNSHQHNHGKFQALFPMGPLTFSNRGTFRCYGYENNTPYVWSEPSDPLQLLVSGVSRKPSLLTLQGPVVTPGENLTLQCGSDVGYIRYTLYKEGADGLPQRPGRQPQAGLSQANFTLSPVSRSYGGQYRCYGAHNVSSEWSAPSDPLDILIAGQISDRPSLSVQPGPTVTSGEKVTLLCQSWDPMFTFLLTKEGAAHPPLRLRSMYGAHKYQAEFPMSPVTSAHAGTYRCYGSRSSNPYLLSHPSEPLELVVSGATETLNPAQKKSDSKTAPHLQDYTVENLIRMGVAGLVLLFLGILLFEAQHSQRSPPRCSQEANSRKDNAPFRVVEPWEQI

[4] = biological target: T2, human ILT7-his protein; assay: ELISA, plate coated with human ILT7-his
Experimental: Methods: The binding of the chimeric anti-ILT7 antibodies identified from the screening, including cmAb12, to human ILT7-his protein was measured by ELISA, along with an isotype antibody hIgG1 as negative control and a reference anti-ILT7 antibody Tab1. 96-well ELISA plates were coated with human ILT7-his in PBS (2 μg/ml) overnight at 4° C. Chimeric antibodies were added to the wells and co-incubated with the coating protein at 37° C. for 1 hour, followed by the addition of secondary HRP labelled antibody. After incubation at 37° C. for 1 more hour, TMB substrate was added to wells and incubated at RT for 15 min. 1 N HCl was added to terminate the reactions. The absorbance at 450 nm was measured with a microplate reader.
Methods: The binding affinity of the humanized cmAb12 antibody, hu-cmAb12, was further measured by surface plasmon resonance (SPR) technology with Biacore 8K. As used herein, “hu-cmAb12” refers to a specific antibody clone variant of the Hu12-04 antibody of Examples 8 and 9. The hu-cmAb12 antibody includes a VL having the amino acid sequence of SEQ ID NO: 19, a VH having the amino acid sequence of SEQ ID NO: 26, and a CH having the amino acid sequence of SEQ ID NO: 55. hu-cmAb12 or Tab1 were immobilized on CM-5 chip. The assay was performed at 25° C. and the running buffer was 1×HEPES (10 mM HEPES, 150 mM NaCl, 3 mM EDTA) with 0.005% Tween-20, pH 7.4. […]

[5] = biological target: T3, full-length human ILT7 on cells; assay: flow cytometry on 293F-human ILT7 cells
Experimental: as §1, §2

[6] = biological target: T2, human ILT7-his protein; assay: SPR, Biacore 8K, antibody captured on the chip, human ILT7-his as analyte, 25° C.
Text: as §3

[7] = biological target: T4, LILRA3/ILT6 (UniProt Q8N6C8 24-439); assay: ELISA, plate coated with 1 µg/ml LILR superfamily protein
T4 sequence (Q8N6C8 24-439 limits assumed): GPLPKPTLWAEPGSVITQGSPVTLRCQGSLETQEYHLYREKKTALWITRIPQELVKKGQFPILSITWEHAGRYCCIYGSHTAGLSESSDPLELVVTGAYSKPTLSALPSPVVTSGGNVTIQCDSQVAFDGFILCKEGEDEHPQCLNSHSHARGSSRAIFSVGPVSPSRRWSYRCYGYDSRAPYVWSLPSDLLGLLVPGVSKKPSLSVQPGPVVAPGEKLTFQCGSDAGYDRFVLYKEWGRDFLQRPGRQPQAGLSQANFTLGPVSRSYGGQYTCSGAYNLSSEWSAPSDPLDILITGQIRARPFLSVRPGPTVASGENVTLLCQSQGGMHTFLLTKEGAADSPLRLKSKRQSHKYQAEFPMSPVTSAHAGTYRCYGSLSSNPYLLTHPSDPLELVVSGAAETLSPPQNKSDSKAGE
Experimental: (§4) Methods: The binding specificities of the chimeric antibodies, including cmAb12, for ILT7 over its related 10 LILR superfamily member proteins were evaluated by ELISA. Plates coated with 1 μg/ml LILR superfamily protein as indicated were incubated with chimeric antibodies at 37° C. for 1 hour, followed by the secondary antibody.

[8] = biological target: T5, LILRB3/ILT5 (UniProt O75022 24-443, limits assumed); assay: as above
T5 sequence (O75022 24-443 limits assumed): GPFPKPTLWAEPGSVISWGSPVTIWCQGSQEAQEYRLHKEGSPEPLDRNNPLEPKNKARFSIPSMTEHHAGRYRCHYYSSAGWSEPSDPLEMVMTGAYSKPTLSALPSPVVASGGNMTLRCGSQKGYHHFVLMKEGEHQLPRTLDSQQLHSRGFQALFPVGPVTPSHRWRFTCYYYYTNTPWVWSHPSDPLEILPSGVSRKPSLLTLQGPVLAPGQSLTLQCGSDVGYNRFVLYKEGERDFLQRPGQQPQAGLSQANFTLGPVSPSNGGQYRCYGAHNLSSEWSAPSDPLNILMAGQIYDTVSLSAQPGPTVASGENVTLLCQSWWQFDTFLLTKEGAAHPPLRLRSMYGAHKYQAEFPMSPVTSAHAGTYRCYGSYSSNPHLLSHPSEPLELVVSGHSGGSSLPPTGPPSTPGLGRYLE
Experimental: as §4

[9] = biological target: T6, LILRB2/ILT4 (UniProt Q8N423 22-460, limits assumed); assay: as above
T6 sequence (Q8N423 22-460 limits assumed): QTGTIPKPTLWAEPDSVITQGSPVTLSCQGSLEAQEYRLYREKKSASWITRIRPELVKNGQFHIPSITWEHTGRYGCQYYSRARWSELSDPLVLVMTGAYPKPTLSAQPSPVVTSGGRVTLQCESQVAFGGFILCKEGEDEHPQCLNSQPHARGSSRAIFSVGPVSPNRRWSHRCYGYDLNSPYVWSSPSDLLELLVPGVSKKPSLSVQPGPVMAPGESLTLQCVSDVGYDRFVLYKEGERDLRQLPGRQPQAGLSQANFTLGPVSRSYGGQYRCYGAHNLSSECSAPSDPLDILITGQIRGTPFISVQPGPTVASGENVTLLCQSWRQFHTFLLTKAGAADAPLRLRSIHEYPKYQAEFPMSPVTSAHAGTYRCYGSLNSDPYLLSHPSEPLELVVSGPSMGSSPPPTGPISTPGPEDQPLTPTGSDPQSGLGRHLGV
Experimental: as §4

[10] = biological target: T7, LILRB1/ILT2 (UniProt Q8NHL6 24-461, limits assumed); assay: as above
T7 sequence (Q8NHL6 24-461 limits assumed): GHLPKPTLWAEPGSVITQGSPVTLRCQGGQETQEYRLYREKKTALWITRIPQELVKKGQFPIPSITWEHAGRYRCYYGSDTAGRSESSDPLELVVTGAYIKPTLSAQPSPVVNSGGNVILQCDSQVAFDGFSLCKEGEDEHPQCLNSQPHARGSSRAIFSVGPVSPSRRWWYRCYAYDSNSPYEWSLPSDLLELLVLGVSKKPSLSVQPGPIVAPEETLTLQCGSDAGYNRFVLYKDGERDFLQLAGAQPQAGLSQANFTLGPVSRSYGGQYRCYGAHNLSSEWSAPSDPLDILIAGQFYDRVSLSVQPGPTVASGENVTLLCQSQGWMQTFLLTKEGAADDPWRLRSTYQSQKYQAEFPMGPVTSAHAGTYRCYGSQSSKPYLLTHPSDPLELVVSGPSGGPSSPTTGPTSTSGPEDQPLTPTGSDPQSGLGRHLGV
Experimental: as §4

[11] = biological target: T8, LILRA6/ILT8 (UniProt Q6PI73 24-447, limits assumed); assay: as above
Experimental: as §4

[12] = biological target: T9, LILRB4/ILT3 (UniProt Q8NHJ6 22-259); assay: as above
Experimental: as §4

[13] = biological target: T10, LILRA5/ILT11 (UniProt A6NI73 42-268, limits assumed); assay: as above
T10 sequence (A6NI73 42-268 limits assumed): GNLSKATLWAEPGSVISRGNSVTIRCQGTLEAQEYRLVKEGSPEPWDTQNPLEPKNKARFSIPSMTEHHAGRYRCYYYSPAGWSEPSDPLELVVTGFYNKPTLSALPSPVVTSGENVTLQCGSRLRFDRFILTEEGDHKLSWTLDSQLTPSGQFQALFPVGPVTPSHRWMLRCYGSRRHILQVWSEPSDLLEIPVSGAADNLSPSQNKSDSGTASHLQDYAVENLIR
Experimental: as §4

[14] = biological target: T11, LILRA1 (UniProt O75019 17-461, limits assumed); assay: as above
T11 sequence (O75019 17-461 limits assumed): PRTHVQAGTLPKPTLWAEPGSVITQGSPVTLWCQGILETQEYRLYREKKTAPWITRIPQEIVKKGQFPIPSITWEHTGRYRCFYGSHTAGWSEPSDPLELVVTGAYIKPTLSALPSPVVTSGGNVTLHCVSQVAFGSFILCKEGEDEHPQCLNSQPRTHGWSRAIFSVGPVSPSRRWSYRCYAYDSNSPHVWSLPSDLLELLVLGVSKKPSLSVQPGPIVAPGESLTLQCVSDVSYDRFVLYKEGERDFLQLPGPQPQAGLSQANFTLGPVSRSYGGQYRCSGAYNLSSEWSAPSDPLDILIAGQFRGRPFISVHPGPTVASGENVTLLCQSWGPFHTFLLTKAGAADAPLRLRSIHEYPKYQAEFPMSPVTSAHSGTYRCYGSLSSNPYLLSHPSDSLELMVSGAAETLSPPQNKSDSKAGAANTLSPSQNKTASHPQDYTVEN
Experimental: as §4

[15] = biological target: T12, LILB5 (UniProt O75023 24-458, limits assumed); assay: as above
T12 construct: also called LILRB5 (printed as LILB5)
T12 sequence (O75023 24-458 limits assumed): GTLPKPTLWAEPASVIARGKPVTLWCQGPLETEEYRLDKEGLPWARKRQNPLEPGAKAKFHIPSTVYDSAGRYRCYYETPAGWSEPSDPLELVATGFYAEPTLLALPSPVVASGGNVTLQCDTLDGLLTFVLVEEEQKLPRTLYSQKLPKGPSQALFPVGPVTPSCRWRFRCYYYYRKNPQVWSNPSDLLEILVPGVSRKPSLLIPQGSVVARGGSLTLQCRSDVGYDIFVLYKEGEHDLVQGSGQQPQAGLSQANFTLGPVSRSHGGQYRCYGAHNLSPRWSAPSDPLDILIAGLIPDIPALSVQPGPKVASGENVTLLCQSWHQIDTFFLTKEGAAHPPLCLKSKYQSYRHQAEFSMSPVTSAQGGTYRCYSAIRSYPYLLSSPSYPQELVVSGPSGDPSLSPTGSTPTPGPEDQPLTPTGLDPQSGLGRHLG
Experimental: as §4

[16] = biological target: T13, LILRA2/ILT1 (UniProt Q8N149 24-449, limits assumed); assay: as above
T13 sequence (Q8N149 24-449 limits assumed): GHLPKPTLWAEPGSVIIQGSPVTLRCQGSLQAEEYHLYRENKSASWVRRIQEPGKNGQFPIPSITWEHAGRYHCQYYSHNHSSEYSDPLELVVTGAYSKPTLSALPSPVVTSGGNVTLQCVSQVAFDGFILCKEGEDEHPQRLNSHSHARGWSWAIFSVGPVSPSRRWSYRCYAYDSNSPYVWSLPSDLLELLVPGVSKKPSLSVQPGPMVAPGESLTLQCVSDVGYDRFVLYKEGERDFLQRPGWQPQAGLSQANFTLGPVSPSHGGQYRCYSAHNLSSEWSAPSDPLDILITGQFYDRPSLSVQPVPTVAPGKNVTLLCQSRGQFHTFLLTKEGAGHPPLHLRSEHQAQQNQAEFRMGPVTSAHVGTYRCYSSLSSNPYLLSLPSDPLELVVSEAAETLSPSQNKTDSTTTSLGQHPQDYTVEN
Experimental: as §4

[17] = biological target: T4, LILRA3/ILT6; assay: ELISA, plate coated with 1 µg/ml LILR protein
Experimental: as §4

[18] = biological target: T5, LILRB3/ILT5; assay: ELISA, plate coated with 1 µg/ml LILR protein
Experimental: as §4

[19] = biological target: T6, LILRB2/ILT4; assay: ELISA, plate coated with 1 µg/ml LILR protein
Experimental: as §4

[20] = biological target: T7, LILRB1/ILT2; assay: ELISA, plate coated with 1 µg/ml LILR protein
Experimental: as §4

[21] = biological target: T8, LILRA6/ILT8; assay: ELISA, plate coated with 1 µg/ml LILR protein
Experimental: as §4

[22] = biological target: T9, LILRB4/ILT3; assay: ELISA, plate coated with 1 µg/ml LILR protein
Experimental: as §4

[23] = biological target: T10, LILRA5/ILT11; assay: ELISA, plate coated with 1 µg/ml LILR protein
Experimental: as §4

[24] = biological target: T11, LILRA1; assay: ELISA, plate coated with 1 µg/ml LILR protein
Experimental: as §4

[25] = biological target: T12, LILB5; assay: ELISA, plate coated with 1 µg/ml LILR protein
Experimental: as §4

[26] = biological target: T13, LILRA2/ILT1; assay: ELISA, plate coated with 1 µg/ml LILR protein
Experimental: as §4

[27] = biological target: T2, human ILT7-his protein; assay: ELISA, plate coated with human ILT7-his, antibody titrated, OD450
[28] = biological target: T2, human ILT7-his protein; assay: ELISA, OD450; the x axis is labelled 'human ILT7 Conc (µg/ml)'
[29] = biological target: T3, full-length human ILT7 on cells; assay: flow cytometry on 293F-human ILT7 cells, MFI
[30] = biological target: T3, full-length human ILT7 on cells; assay: flow cytometry on 293F-human ILT7 cells, MFI; remark: listed apart in the source
[31] = biological target: T1, full-length cynomolgus ILT7 on cells; assay: flow cytometry on CHOK1-cynomolgus ILT7 cells, MFI
[32] = biological target: T1, full-length cynomolgus ILT7 on cells; assay: flow cytometry on CHOK1-cynomolgus ILT7 cells, MFI; remark: listed apart in the source

T1 sequence (P59901 other isoform, or with tags, fused parts or gaps limits assumed): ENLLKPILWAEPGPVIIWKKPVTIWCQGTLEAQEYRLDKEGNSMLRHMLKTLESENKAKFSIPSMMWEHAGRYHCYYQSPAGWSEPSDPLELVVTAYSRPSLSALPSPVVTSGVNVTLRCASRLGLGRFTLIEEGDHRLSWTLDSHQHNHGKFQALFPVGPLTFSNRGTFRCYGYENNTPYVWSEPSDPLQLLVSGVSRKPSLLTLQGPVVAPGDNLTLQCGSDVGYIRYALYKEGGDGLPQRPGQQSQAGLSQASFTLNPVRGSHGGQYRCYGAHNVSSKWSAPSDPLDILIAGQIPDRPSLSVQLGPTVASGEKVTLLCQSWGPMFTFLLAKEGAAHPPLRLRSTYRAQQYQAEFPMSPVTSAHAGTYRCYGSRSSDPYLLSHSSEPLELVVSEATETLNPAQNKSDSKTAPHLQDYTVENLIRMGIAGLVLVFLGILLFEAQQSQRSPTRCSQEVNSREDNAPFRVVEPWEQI

EC50 [1]: 1.65 nM
koff [2]: 0.106 s⁻¹
kon [2]: 959000 M⁻¹ s⁻¹
macrophage-dependent ADCP activity, EC50 (Donor 1) [3]: 0.881 nM
macrophage-dependent ADCP activity, EC50 (Donor 2) [3]: 2.17 nM
macrophage-dependent ADCP activity, EC50 (Donor 3) [3]: 1.58 nM
EC50 [4]: 0.0791 µg/mL
EC50 [5]: 0.343 nM
Kd [6]: 111 nM
B1: humanized antibody hu-cmAb12 (antibody, V domains shown)
VH: QVQLVQSGAEVKKPGASVKVSCKASGYTFTEYPMHWVRQAPGQRLEWMGMIYTDTGEPAYAEEFKGRVTITRDTSASTAYMELSSLRSEDTAVYYCARELGQNFDYWGQGTTVTVSS
VL: DIVLTQSPASLAVSPGQRATITCRASQSVSTSSYSYMHWYQQKPGQPPKLLIYYASNLESGVPARFSGSGSGTDFTLTINPVEAEDTANYYCQHSWDIPYTFGQGTKLEIK
modifications: Example 12: the antibody was conjugated with the dye Alexa488, which the letters do not carry.
notes: also called antibody clone variant of Hu12-04
NK-dependent ADCC activity (% Cytotoxicity), EC50 [3]: 0.0038 nM
neutrophil-dependent ADCC activity (% Cytotoxicity), EC50 [3]: 16.1 nM

EC50 [1]: 0.939 nM
EC50 [4]: 0.0751 nM
EC50 [5]: 0.312 nM
binding result [7]: no binding
binding result [8]: no binding
binding result [9]: no binding
binding result [10]: no binding
binding result [11]: no binding
binding result [12]: no binding
binding result [13]: no binding
binding result [14]: no binding
binding result [15]: no binding
binding result [16]: no binding
ELISA OD 450 nM [17]: 0.1 OD450
ELISA OD 450 nM [18]: 0.1 OD450
ELISA OD 450 nM [19]: 0.3 OD450
ELISA OD 450 nM [20]: 0.1 OD450
ELISA OD 450 nM [21]: 0.1 OD450
ELISA OD 450 nM [22]: 0.1 OD450
ELISA OD 450 nM [23]: 0.1 OD450
ELISA OD 450 nM [24]: 0.1 OD450
ELISA OD 450 nM [25]: 0.1 OD450
ELISA OD 450 nM [26]: 0.2 OD450
B2: chimeric antibody Ab12 (cmAb12) (antibody, human IgG1, V domains shown)
VH: QIQLVQSGPELKKPGETVKISCKASGYTFTEYPMHWVKQAPGKGFKWMGMIYTDTGEPAYAEEFKGRFAFSLETSASTAYLQINNLKNEDTATYFCVRELGQNFDYWGQGTTLTVSS
VL: DIVLTQSPASLAVSLGQRATISCRASQSVSTSSYSYMHWYQQKPGQPPKLLIKYASNLESGVPARFSGSGSGTDFTLNIHPVEEEDTATYYCQHSWDIPYTFGGGTKLEIK
notes: also called chimeric Ab12

Kd [2]: 71.3 nM
koff [2]: 0.0278 s⁻¹
kon [2]: 390000 M⁻¹ s⁻¹
EC50 [27]: 0.0682 nM
EC50 [28]: 0.0398 µg/mL
EC50 [29]: 0.579 nM
EC50 [30]: 0.383 nM
EC50 [31]: 2.46 nM
EC50 [32]: 1.1 nM
B3: benchmark antibody daxdilimab (Tab1) (antibody, V domains shown)
VH: QVQLQQSGAEVKKPGASVKVSCKASGYTFTSYGISWVRQAPGQGLEWMGWISAYNGNTNYAQKLQGRVTMTIDTSTSTAYMELRSLRSDDTAVYYCARNGLWGWDSDAFDIWGRGTLVTVSS
VL: QSALTQPASVSGSPGQSITISCTGTSSDVGGYNYVSWYQQHPGKAPKLMIYDVSNRPSGVSNRFSGSKSGNTASLTISGLQAEDEADYYCSSYTSSSTVVFGGGTKVTVL
NK-dependent ADCC activity (% Cytotoxicity), EC50 [3]: 0.0103 nM
